Results on 3 molecules are retold here after US20150283219A1 (INVECTYS, published 2015).

Holding throughout (experiment): competitive ELISA, mean of three experiments
On the technique in general: In an ELISA, binding on a coated surface is turned into a signal by an enzyme label.

The target in experiment [1] is HLA-DR15 (human).
For experiment [2], the target named is HLA-DRB3 (human).
Experiment [3] has as its target HLA-DRB5 (human).
The target of experiment [4] is HLA-DR1 (human).
Experiment [5] addresses HLA-DR4 (human).
In experiment [6] the target is HLA-DR7 (human).
Experiment [7] concerns the target HLA-DRB4 (human).

B1: UCP4 (TERT1041-1055) (peptide)
peptide: SLCYSILKAKNAGMS
notes: Synthetic 15-mer (>80% purity, Activotec) derived from human TERT; also called UCP1041; p1041
In the case of B1, the “relative affinity (RA, IC50 of UCP / IC50 of reference peptide)” value came out at 3 ratio in experiment [1]; 154 ratio in experiment [2]; 0.5 ratio in experiment [3]; 0.3 ratio in experiment [4]; 34 ratio in experiment [5]; 8 ratio in experiment [6].

B2: UCP2 (TERT578-592) (peptide)
peptide: KSVWSKLQSIGIRQH
notes: Synthetic 15-mer (>80% purity, Activotec) derived from human TERT; also called UCP578; p578
For the molecule B2, the “relative affinity (RA, IC50 of UCP / IC50 of reference peptide)” value in experiment [1] was 8 ratio; in experiment [2], 154 ratio; in experiment [7], 229 ratio; in experiment [3] it was 1 ratio; in experiment [4] it was 0.2 ratio; in experiment [5] it was 112 ratio. The “relative affinity (RA, IC50 of UCP / IC50 of reference peptide)” value in experiment [6] stood at 1 ratio.

B3: UCP1 (TERT44-58) (peptide)
peptide: PAAFRALVAQCLVCV
notes: Synthetic 15-mer (>80% purity, Activotec) derived from human TERT; also called UCP44; p44
As to B3, the “relative affinity (RA, IC50 of UCP / IC50 of reference peptide)” value in experiment [1] was determined as 4 ratio; in experiment [2] it was 30 ratio; in experiment [7] it was 4 ratio; in experiment [3] it was 1 ratio; in experiment [4], 3 ratio; in experiment [5] it was 50 ratio. In experiment [6], the “relative affinity (RA, IC50 of UCP / IC50 of reference peptide)” value was 3 ratio.
